Assays:
Assay in all cases: two-hybrid library CCmax;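 further: natural log of median RNA to DNA barcode read ratio; higher means stronger binding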
4H3162-AA = biological target: T1, 4H3162-AA; details: mean of both orientations
T1 chain: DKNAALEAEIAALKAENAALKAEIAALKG

4H2198-AA = biological target: T2, 4H2198-AA; details: mean of both orientations
T2 chain: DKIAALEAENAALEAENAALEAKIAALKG

4H3718-AA = biological target: T3, 4H3718-AA; details: mean of both orientations
T3 chain: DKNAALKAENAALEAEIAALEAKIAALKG

4H2944-AA = biological target: T4, 4H2944-AA; details: mean of both orientations
T4 chain: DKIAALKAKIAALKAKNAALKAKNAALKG

4H982-AA = biological target: T5, 4H982-AA; details: mean of both orientations
T5 chain: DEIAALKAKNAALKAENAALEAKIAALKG

4H1629-AA = biological target: T6, 4H1629-AA; details: mean of both orientations
T6 chain: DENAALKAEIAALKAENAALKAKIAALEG

4H2648-AA = biological target: T7, 4H2648-AA; details: mean of both orientations
T7 chain: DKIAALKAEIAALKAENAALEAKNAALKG

4H3697-AA = biological target: T8, 4H3697-AA; details: mean of both orientations
T8 chain: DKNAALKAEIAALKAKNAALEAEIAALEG

4H2553-AA = biological target: T9, 4H2553-AA; details: mean of both orientations
T9 chain: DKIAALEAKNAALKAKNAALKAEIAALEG

4H1513-AA = biological target: T10, 4H1513-AA
T10 chain: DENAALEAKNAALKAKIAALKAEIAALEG

4H3056-AA = biological target: T11, 4H3056-AA; details: mean of both orientations
T11 chain: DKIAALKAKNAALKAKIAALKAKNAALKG

4H1845-AA = biological target: T12, 4H1845-AA; details: mean of both orientations
T12 chain: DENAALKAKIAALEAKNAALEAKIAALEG

4H340-AA = biological target: T13, 4H340-AA; details: mean of both orientations
T13 chain: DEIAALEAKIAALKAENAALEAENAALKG

4H3588-AA = biological target: T14, 4H3588-AA; details: mean of both orientations
T14 chain: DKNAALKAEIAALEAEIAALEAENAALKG

4H1874-AA = biological target: T15, 4H1874-AA; details: mean of both orientations
T15 chain: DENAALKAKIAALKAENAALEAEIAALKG

4H3378-AA = biological target: T16, 4H3378-AA; details: mean of both orientations
T16 chain: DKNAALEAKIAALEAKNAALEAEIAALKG

4H3133-AA = biological target: T17, 4H3133-AA; details: mean of both orientations
T17 chain: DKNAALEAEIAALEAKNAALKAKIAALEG

4H1594-AA = biological target: T18, 4H1594-AA; details: mean of both orientations
T18 chain: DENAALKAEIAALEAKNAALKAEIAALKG

4H384-AA = biological target: T19, 4H384-AA; details: mean of both orientations
T19 chain: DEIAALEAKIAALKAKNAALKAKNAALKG

4H2620-AA = biological target: T20, 4H2620-AA; details: mean of both orientations
T20 chain: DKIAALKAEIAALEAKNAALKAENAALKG

4H3627-AA = biological target: T21, 4H3627-AA; details: mean of both orientations
T21 chain: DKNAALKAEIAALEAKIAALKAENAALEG

4H3413-AA = biological target: T22, 4H3413-AA; details: mean of both orientations
T22 chain: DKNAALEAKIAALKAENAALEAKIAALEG

4H3631-AA = biological target: T23, 4H3631-AA; details: mean of both orientations
T23 chain: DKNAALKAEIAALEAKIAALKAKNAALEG

Q7-AA = biological target: T24, Q7-AA; details: mean of both orientations
T24 chain: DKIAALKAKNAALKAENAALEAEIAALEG

Q3-AA = biological target: T25, Q3-AA; details: mean of both orientations
T25 chain: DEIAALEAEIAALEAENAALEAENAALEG

4H697-AA = biological target: T26, 4H697-AA; details: mean of both orientations
T26 chain: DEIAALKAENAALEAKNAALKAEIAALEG

Q8-AA = biological target: T27, Q8-AA; details: mean of both orientations
T27 chain: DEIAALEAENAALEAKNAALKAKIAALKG

4H2907-AA = biological target: T28, 4H2907-AA; details: mean of both orientations
T28 chain: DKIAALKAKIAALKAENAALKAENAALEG

4H3865-AA = biological target: T29, 4H3865-AA; details: mean of both orientations
T29 chain: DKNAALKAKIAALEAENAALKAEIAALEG

4H3606-AA = biological target: T30, 4H3606-AA; details: mean of both orientations
T30 chain: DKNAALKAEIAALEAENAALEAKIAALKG

4H32-AA = biological target: T31, 4H32-AA; details: mean of both orientations
T31 chain: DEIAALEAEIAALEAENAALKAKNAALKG

4H2611-AA = biological target: T32, 4H2611-AA
T32 chain: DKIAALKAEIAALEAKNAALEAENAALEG

B1: 4H1513-AA (peptide)
chain: DENAALEAKNAALKAKIAALKAEIAALEG
interaction score (4H3162-AA): -1.99 | interaction score (4H2198-AA): 1.63 | interaction score (4H3718-AA): 1.82 | interaction score (4H2944-AA): -1.86 | interaction score (4H982-AA): -1 | interaction score (4H1629-AA): -1.62 | interaction score (4H2648-AA): -1.14 | interaction score (4H3697-AA): -2.13 | interaction score (4H2553-AA): -1.64 | interaction score (4H1513-AA): -1.35 | interaction score (4H3056-AA): -1.71 | interaction score (4H1845-AA): -1.62 | interaction score (4H340-AA): -1.57 | interaction score (4H3588-AA): -0.131 | interaction score (4H1874-AA): -1.02 | interaction score (4H3378-AA): -1.77 | interaction score (4H3133-AA): -1.2 | interaction score (4H1594-AA): -1.55 | interaction score (4H384-AA): -1.22 | interaction score (4H2620-AA): -1.68 | interaction score (4H3627-AA): -0.0527 | interaction score (4H3413-AA): -1.28 | interaction score (4H3631-AA): 0.267 | interaction score (Q7-AA): -0.188 | interaction score (Q3-AA): -1.16 | interaction score (4H697-AA): -1.68 | interaction score (Q8-AA): -1.06 | interaction score (4H2907-AA): -1.65 | interaction score (4H3865-AA): -1.9 | interaction score (4H3606-AA): 0.638 | interaction score (4H32-AA): -0.712 | interaction score (4H2611-AA): -1.21
